Reference: the Immune Epitope Database (IEDB)

What follows are sequences tested against HLA-A*02:01 (assay: IEDB peptide-MHC binding, cellular MHC/competitive/fluorescence; ≥ and ≤ were set here for values at or beyond the usual limits of such assays). Conditions: source organism: Influenza A virus.

Sequence	IC50
ITFMQALQLL	7.71 µM

Same assay, conditions: source organism: Mammarenavirus brazilense

Sequence	IC50
AINIALIAV	8.3 µM

Same assay, conditions: source organism: Vaccinia virus WR

Sequence	IC50
AIMFKDDNII	43.8 µM
ALNISSTKT	21.1 µM
ALSDACKKIL	17.9 µM
AQSKSSLLHA	32.9 µM
ATDPDADAI	39.1 µM
ATDPDADAIA	≥ 70 µM
ATESDAIRT	10.8 µM
ATLGPANRI	17 µM
ATVMNNLSEL	11 µM
ATYHIIIVA	6.42 µM
AVAVAAASST	51.7 µM
AVCNLASVA	17.8 µM
AVEHIPTMKI	14.3 µM
AVNEEWLTA	17.3 µM
CIEYVTLNA	11.1 µM
CIKSHSVSLV	≥ 70 µM
CIRISMVISL	6.22 µM
CISQHQHLAI	11 µM
CMSANEAAIT	6.71 µM
CTVPTMNNA	16.1 µM
CVDNHLGAT	52.1 µM
CVVYPGNGFV	24.9 µM
DAAVAVAAA	5.2 µM
DACKKILSA	14.4 µM

Sequence	IC50
DAFSREYSM	7.57 µM
DAFSREYSMT	≥ 70 µM
DALAKNASEL	61.8 µM
DANVVSSST	7.63 µM
DANVVSSSTI	≥ 70 µM
DASLMDMIT	10.5 µM
DAYNIADAA	≥ 70 µM
DIDEILGIA	≥ 70 µM
DIEPDLENNL	54.4 µM
DIGTVKDGRL	≥ 70 µM
DIIDFLEGAL	23.2 µM
DILANRDST	≥ 70 µM
DILANRDSTL	34.5 µM
DINSDNSNI	24.8 µM
DIPVNNNIVL	≥ 70 µM
DIRTLLPIL	37.6 µM
DIRTLLPILL	50.6 µM
DISMSLYKDL	9.88 µM
DIVGLDLENL	16.6 µM
DIVSKLTFL	7.81 µM
DIYYNGNKML	19.6 µM
DLAFLIKFIT	6.32 µM
DLEKYFYGEI	≥ 70 µM
DLENLYAVT	6.55 µM

Sequence	IC50
DLENNLVKL	16.2 µM
DLFPKQTIQT	12.9 µM
DLSKLSKDV	6.36 µM
DLSKLSKDVV	≥ 70 µM
DLVKSYSLI	≥ 70 µM
DLVVLGKVT	53.3 µM
DLVVLGKVTI	10.9 µM
DLYNGGRIDM	29.5 µM
DMIHNVIDDV	19.8 µM
DMLNIMNKL	5.12 µM
DMLVNRMQRI	11.7 µM
DMPSLSNGL	47.2 µM
DMPSLSNGLI	43 µM
DQSIKIGDI	≥ 70 µM
DQYKFHKLL	16 µM
DTFVSSVREV	5.08 µM
DTQQHPIVV	13.9 µM
DTQQHPIVVL	≥ 70 µM
DTSCDFESVT	≥ 70 µM
DVEDLLSYYV	5.16 µM
DVELFIKAL	≥ 70 µM
DVGYEVIGA	32.3 µM
DVTAKSSFV	8.56 µM
EAAITDAAVA	26.3 µM

Sequence	IC50
EATYHIIIV	11 µM
EAVKDKNWT	38.7 µM
EAVKDKNWTV	14.8 µM
EIEEHMRQT	39 µM
EIFIRYGDA	30.5 µM
EILTVKRPLL	≥ 70 µM
EINATDIII	17.1 µM
EINNELELV	8.27 µM
EIPTRTLDT	5.98 µM
EIPTRTLDTA	59 µM
EIRDQYITA	≥ 70 µM
EITELVVEYM	35.6 µM
ELDTLAAEI	9.53 µM
ELEEMVDKGT	≥ 70 µM
ELEPSLATFI	11.2 µM
ELFIKALSDA	10.9 µM
ELIAFSSGT	5.34 µM
ELKTQSPDVL	61 µM
ELMPIRTDT	≥ 70 µM
ELMPIRTDTT	11.7 µM
ELNLSKFMM	7 µM
ELPYDENGI	8.48 µM
ELQKFSFKIA	≥ 70 µM
ELTASGGKV	49.8 µM

Sequence	IC50
ELTASGGKVL	≥ 70 µM
ELTTLSRHI	18.6 µM
ELVFIKPPL	28 µM
ELVNLIQAKT	≥ 70 µM
EQEIESLEA	26.3 µM
EQEIESLEAT	42.7 µM
EQRSTAYEI	8.92 µM
EQTSVFSAT	16.9 µM
EQTSVFSATV	28.6 µM
ETDRENAII	67.3 µM
ETIGNQLYLT	14.6 µM
ETMPCVKKKA	≥ 70 µM
ETSFIFIET	8.82 µM
ETSFNDKQKV	≥ 70 µM
ETVSTIDGRI	≥ 70 µM
EVASTHDWST	≥ 70 µM
EVFHCMDIL	12 µM
EVFHCMDILT	14.8 µM
EVFINDNGI	≥ 70 µM
EVFINDNGIM	≥ 70 µM
EVFNREYNNV	13.2 µM
EVRKYFCVKT	23.2 µM
EVSINVDST	≥ 70 µM
EVSYFTNKRT	66.1 µM

Sequence	IC50
EVVANVIGL	12.2 µM
EVVVFGEAV	13.4 µM
FASGNSIDDI	9.21 µM
FIKPPLITLT	≥ 70 µM
FINDRMKKDI	≥ 70 µM
FINKLNGAM	57.8 µM
FIVISPMGKL	20 µM
FLDDSNKRKV	8.41 µM
FTNKRTRGPL	16.2 µM
FTNLLSKNT	13.1 µM
FTVTNKEGV	10.3 µM
FVFYKPKHST	≥ 70 µM
FVKRLGPGT	39.7 µM
GAIKCEGLDV	49 µM
GAIYKLGSSI	36.6 µM
GAMVEYVST	24.8 µM
GASYISCTA	7.35 µM
GATLYRFKHI	≥ 70 µM
GIAHLLEHLL	7.4 µM
GIKEDETVST	41.7 µM
GILSNYVKT	≥ 70 µM
GINQEDGIII	≥ 70 µM
GIPITIRVT	18.7 µM
GIRVKHSFSA	6.87 µM

Sequence	IC50
GIVLSNTST	20.2 µM
GIVLSNTSTA	13.1 µM
GTETKITFA	60.6 µM
GTLDFFKQT	49.5 µM
GTVINEDIV	35.7 µM
GVIFLISVI	12.1 µM
GVIFLISVIV	5.83 µM
GVKIRTKIPL	12.7 µM
GVSDLISTEI	41.8 µM
HASPTLFNA	8.95 µM
HIDYNEDMIT	51.4 µM
HIHKILTREM	16.2 µM
HIIIVALTI	7.72 µM
HLATPINSRI	7.9 µM
HLLISFDST	28.1 µM
HLNPSRIRIT	≥ 70 µM
HLRDQSIKI	7.25 µM
HLSCKSGFT	6.23 µM
HMLKLQARNI	24 µM
IAFSSGTVI	43.9 µM
IAHLLEHLL	14.1 µM
IAHLLEHLLI	15.7 µM
IAMKVIQGI	7.73 µM
IATYIDALA	12.4 µM

Sequence	IC50
IIDFLEGALI	≥ 70 µM
IIERSKKFI	5.31 µM
IIHTGCSQVM	12.4 µM
IIIVALTIM	9.64 µM
IIKKNDIVRV	48.4 µM
IINRDIIVI	10.8 µM
IIPSSIPVST	17.1 µM
IIRQRNDEI	52.8 µM
IIRRSGCRI	≥ 70 µM
IIRYPVKRI	10.1 µM
IIYNANKLI	17 µM
ILANRDSTL	11 µM
ILFLLFVCI	5.69 µM
ILHRLHEILT	12.6 µM
ILKPRIDKTM	49.3 µM
ILRSIEGEL	8.99 µM
ILSIVGFRPT	38.1 µM
ILYKVRKNFT	7.65 µM
IMKTPGNTDA	9.42 µM
IMSLNGKKHT	≥ 70 µM
IQAKTKNFT	≥ 70 µM
IQESFIRFT	36.2 µM
IQETIRSDT	49.6 µM
IQGKNKRKRV	≥ 70 µM

Sequence	IC50
IQKSSSIDV	15.9 µM
IQQLYEFRKV	8.74 µM
ITDAAVAVA	8.52 µM
ITDAAVAVAA	6.51 µM
ITFALKKLI	≥ 70 µM
ITPDVIINST	≥ 70 µM
ITTMDGDKL	15 µM
ITVTVTFNPV	6.42 µM
IVALTIMGVI	5.77 µM
IVARRKDQT	≥ 70 µM
IVDDDFISA	11.5 µM
IVEHLRDQSI	≥ 70 µM
IVGLDLENL	14.2 µM
IVISPMGKLT	52.6 µM
IVIYPNFSKA	9.76 µM
IVLPNKVRI	35.1 µM
IVLSNTSTA	16.9 µM
IVMTPSPFYT	6.46 µM
IVRCCAGDDI	10.7 µM
IVRDMLVNRM	14.4 µM
IVRLNQCMSA	7.46 µM
IVTLQKVLHV	32.9 µM
IVVELEPSLA	9.09 µM
IVVYNPSTM	56.2 µM

Sequence	IC50
IVWEKKSLVT	20.7 µM
KALSDACKKI	14.3 µM
KAMCNTRDT	51.6 µM
KAVIEYDDI	37.6 µM
KIAISSLNKL	36.6 µM
KIDKLRQIVA	32.4 µM
KIEPRNILI	8.32 µM
KIKHKGMSFV	15.8 µM
KIKVTAASPM	≥ 70 µM
KILTREMGFL	5.47 µM
KITFALKKL	17.8 µM
KITFALKKLI	64.7 µM
KLIIDREVV	6.63 µM
KLIIDREVVA	15.8 µM
KLKYFLGSGA	7.19 µM
KLSKLTDKKT	≥ 70 µM
KQDIVGLDL	14.2 µM
KQQKKCKYCI	56.4 µM
KQRTPGIITI	53.2 µM
KQTFGSLPA	18.9 µM
KTFIIHKNL	9.47 µM
KTFMLPKQDI	33.6 µM
KTKYYKFDYI	51.5 µM
KTLDFKSKKV	52.8 µM

Sequence	IC50
KVDVELFIKA	8 µM
KVRIFINDRM	39.7 µM
KVTINNLKM	5.74 µM
KVTINNLKMM	35.7 µM
LAGYILTVL	11.6 µM
LAIDFGNGA	46.6 µM
LARNLGLVDI	≥ 70 µM
LIAFSSGTVI	7.63 µM
LIANIHNHMI	5.99 µM
LIKKPYRSI	59.4 µM
LIKLIEPVNA	55.6 µM
LIRPKILSM	≥ 70 µM
LISMYCSKT	12.5 µM
LITSAFDLL	30.3 µM
LITTMDGDKL	≥ 70 µM
LIVRLNQCM	19.8 µM
LLKDLFPKQT	≥ 70 µM
LLTKSNNGT	13.9 µM
LLVATDPDA	17.4 µM
